In patent publication US20090124555A1, “USE OF HISTOGRANIN AND HISTOGRANIN-LIKE COMPOUNDS AS INHIBITORS OF P2X7 RECEPTOR FUNCTION AND AS ANTI-ARTHRITIC AGENTS” (priority 2005, published 2009):
“Also recorded” adds a separate entry of the source.

Legend:
P2X7 receptor [1] = target: T1, P2X7 receptor (Mus musculus, UniProt Q9Z1M0); test: ATP-induced extracellular release of IL-1.beta, IL-1.alpha and IL-6 in vivo (peritoneal lavage of LPS-primed mice); settings: 0.1 mg and 0.3 mg i.p. 15 min before ATP, FIG. 6B
T1 construct: from tissue; host or cells: living mice; peritoneal cavity (lavage fluid analysed)
T1 sequence (Q9Z1M0 1-595): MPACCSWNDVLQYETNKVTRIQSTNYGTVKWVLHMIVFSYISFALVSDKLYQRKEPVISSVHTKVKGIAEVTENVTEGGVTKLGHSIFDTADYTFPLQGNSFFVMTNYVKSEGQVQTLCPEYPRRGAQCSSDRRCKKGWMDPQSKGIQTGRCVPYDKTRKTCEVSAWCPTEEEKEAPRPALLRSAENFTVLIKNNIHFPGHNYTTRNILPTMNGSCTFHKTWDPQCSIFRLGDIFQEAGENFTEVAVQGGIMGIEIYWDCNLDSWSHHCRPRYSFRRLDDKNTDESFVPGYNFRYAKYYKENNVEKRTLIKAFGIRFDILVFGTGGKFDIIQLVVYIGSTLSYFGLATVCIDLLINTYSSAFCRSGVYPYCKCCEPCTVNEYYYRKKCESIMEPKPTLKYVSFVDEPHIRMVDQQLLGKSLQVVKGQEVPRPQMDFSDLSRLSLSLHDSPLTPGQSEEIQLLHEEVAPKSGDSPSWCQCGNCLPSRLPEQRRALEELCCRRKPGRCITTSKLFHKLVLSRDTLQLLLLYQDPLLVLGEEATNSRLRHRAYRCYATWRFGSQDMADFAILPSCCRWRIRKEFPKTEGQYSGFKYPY
Method: Groups of mice were injected intraperitoneally (i.p.) with 50 μg of LPS. Two hours after this LPS injection, mice were injected i.p. with either PBS or ATP (5 mM, adjusted to pH 7), or with HN compounds (0.1 mg and 0.3 mg) 15 minutes before ATP injection. Mice were sacrificed 30 minutes (IL-1.beta and IL-1.alpha) or 120 minutes (IL-6) after the ATP or PBS injection and peritoneal cavities were lavaged each with 3 ml PBS. Samples of peritoneal lavages were centrifuged, cell-free supernatants were collected and tested for the presence of IL-1.beta, IL-1.alpha and IL-6 using ELISA (R&D Systems, Minneapolis, Minn., and Biosource, Camarillo, Calif., respectively).

[2] = system: DBA/1 mice with collagen-induced arthritis; test: Collagen-induced arthritis (CIA) in mice, clinical and histologic scoring; type: in vivo; settings: 0.3 mg i.p. daily before LPS and onset
Method: For induction of arthritis, DBA/1 mice (The Jackson Laboratory, Bar Harbor, Me.) were immunized intradermally at the base of the tail with bovine type II collagen (100 μg; Chondrex, Richmond, Wash.) emulsified in Freund's complete adjuvant (Chondrex, Richmond, Wash.). On day 21, the animals were boosted with an intradermal injection of 100 μg type II collagen. To synchronize the onset of arthritis, mice were subsequently injected i.p. with LPS (50 μg) (Yoshino et al. (2000) J. Immunol. 163:3417-3422).
To test the subject of the present invention, mice were divided in various groups: mice injected with saline (negative control), mice injected with collagen and LPS (positive control), mice injected with collagen and treated i.p. daily with HN compound starting 2 days before i.p. injection of LPS and onset of arthritis, and mice injected with collagen and LPS, and treated i.p. daily with RN compound after the onset of arthritis as monitored by the presence of a positive clinical score index as described below.
The incidence of arthritis was monitored daily by macroscopic clinical scoring on a 0-3 scale where 0=normal: 1=slight swelling and erythema. […] Limb swelling was also measured with calipers (Wallace et al. (1999) J. Immunol. 162:5547-5555). […] Cartilage destruction was evaluated as the extent of loss of glycosaminoglycan matrix, death of chondrocytes, thinning and destruction. […]

P2X7 receptor [3] = target: T2, P2X7 receptor (Rattus norvegicus, UniProt Q64663); test: ATP-induced membrane permeabilization and pore formation (ethidium bromide uptake) in alveolar macrophages; type: cell-based; settings: rat alveolar macrophages, FIG. 1A
T2 construct: Alveolar macrophages (AM) were recovered from normal rats by bronchoalveolar lavage; endogenous in cells; host or cells: primary alveolar macrophages from male Wistar rats (bronchoalveolar lavage)
T2 sequence (Q64663 1-595): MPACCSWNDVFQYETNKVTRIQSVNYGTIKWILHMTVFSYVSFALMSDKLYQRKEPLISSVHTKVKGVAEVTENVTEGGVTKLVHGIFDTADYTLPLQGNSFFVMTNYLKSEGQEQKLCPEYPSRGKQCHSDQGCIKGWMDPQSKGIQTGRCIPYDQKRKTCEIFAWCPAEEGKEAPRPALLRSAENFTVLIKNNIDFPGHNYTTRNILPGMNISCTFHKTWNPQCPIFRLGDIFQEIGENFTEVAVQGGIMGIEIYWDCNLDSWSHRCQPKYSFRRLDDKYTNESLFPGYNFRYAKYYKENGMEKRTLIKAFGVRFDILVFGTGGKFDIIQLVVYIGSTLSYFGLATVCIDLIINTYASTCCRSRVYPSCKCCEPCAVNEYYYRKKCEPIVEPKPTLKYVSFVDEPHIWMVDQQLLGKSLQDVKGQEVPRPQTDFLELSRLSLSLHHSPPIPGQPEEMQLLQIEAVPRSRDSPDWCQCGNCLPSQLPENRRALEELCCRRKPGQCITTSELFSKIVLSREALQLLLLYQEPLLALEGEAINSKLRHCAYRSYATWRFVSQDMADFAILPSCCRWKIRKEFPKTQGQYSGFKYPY
Method: Alveolar macrophages (AM) were recovered from normal rats by bronchoalveolar lavage (BAL) as described previously (Lemaire (1991) Am. J. Pathol. 138:487-495). The lungs were lavaged with 7 ml-aliquots of sterile phosphate buffered saline (pH 7.4; Wisent, St. Bruno, QC), and BAL cells were obtained by centrifugation at 200×g at 4° C. for 5 minutes. The cells were resuspended in RPMI 1640 medium (Wisent, St-Bruno, QC) supplemented with 0.5% dialysed fetal bovine serum (Wisent. St-Bruno, QC), 0.005% gentamycin (Schering Canada Inc. Pointe Claire. QC) and 0.8% HEPES (Sigma Chemical Co., St-Louis, MO) which will henceforth be referred to as complete culture medium (CM).
Freshly isolated AM (1×10^5) were incubated in 200 μl complete medium in 96 wells tissue culture plates for 24 h. Following centrifugation, medium was replaced with saline solution containing 125 mM NaCl, 5 mM KCL, 1 mM MgSO4, 1 mM Na2HPO4, 5.5 mM glucose, 5 mM NaHCO3, 1 mM CaCl2 and 20 mM Hepes, pH 7.6. Ethidium bromide was added to a final concentration of 20 μM and AM were stimulated with ATP (5 mM, Sigma), 3′-O-(4-benzoylbenzoyl ATP (BzATP) (0.5 mM, Molecular Probes) or uridine 5′-triphosphate (UTP) (Sigma), at 37° C. for 5 minutes. In some experiments, cells were pre-treated with oxidized ATP (oATP, 0.1 mM, Sigma) for 2 h or Brilliant Blue G (BBG, 5×10^−9M, Sigma) for 5 minutes, or HN compounds for 5 minutes before ATP stimulation. After ATP stimulation, the plate was centrifuged (200×g, 1 minute), culture supernatants were replaced with fresh buffer and the fluorescence was analyzed using a Zeiss Axiovert S1100 TV inverted microscope equipped with a rhodamine filter and a 32× objective. Images were captured and analysed with the Northern Eclipse image analysis software. Data are expressed as percentage of cells that become permeabilized to ethidium bromide.

P2X7 receptor [4] = target: T1, P2X7 receptor; test: P2X7 receptor-stimulated IL-1.beta release ex vivo, blood-based IL-1.beta assay in CIA mice; settings: blood of i.p. treated CIA mice, FIG. 12C
Method: P2X7 receptor-stimulated IL-1 release ex vivo was performed with a blood-based IL-1.beta assay (Perregaux et al. (2000) J. Immunol. 165:4615-4623). Blood was collected from mice in each group in heparin-containing tubes. A total of 120 μl of blood was placed into an individual well of a 96-well plate and diluted with 120 μl RPMI 1640 medium containing 25 mM HEPES and 1% dialysed FBS. The diluted blood samples were incubated for 3 h in the presence and absence of LPS (1 μg/ml) at 37° C. in 5% CO2. ATP (5 mM, pH 7) was then added as a secretion stimulus and the mixtures were incubated at 37° C. for an additional 2 h. The 96-well plates were then centrifuged at 700×g for 10 min at 4° C., and the resulting plasma samples were collected and assayed for their IL-1.beta content by ELISA (R&D Systems, Minneapolis, Minn.).

Molecule | IL-1.beta in peritoneal lavage in response to ATP, various HN compounds (P2X7 receptor [1]) | arthritis score index ([2]; FIG. 12A) | histological score index ([2]; both knees, FIG. 12B) | inhibition of ATP-induced pore formation (ethidium bromide uptake) (P2X7 receptor [3]; ATP 5 mM, 5 min, compound 10^−9M) | inhibition of BzATP-induced pore formation (P2X7 receptor [3]; BzATP 0.5 mM) | ATP-induced IL-1.beta release in peripheral blood (P2X7 receptor [4]; ATP without LPS ex vivo) | LPS+ATP-induced IL-1.beta release in peripheral blood (P2X7 receptor [4]; LPS 3 h then ATP 2 h ex vivo)
N=C(N)NCCC[C@H](Nc1ccccc1NC(=O)Cc1ccc(O)cc1)C(N)=O [C-11, N-5-guanidinopentanamide-(2S)-yl-2-N (p-hydroxyphenylacetyl)phenylenediamine] | inactive; also recorded: did not inhibit | did not reduce | did not reduce | – | – | – | –
cyclic (-Gly-Ala-Tyr-D-Arg-) (GAYR; HELM PEPTIDE1{G.A.Y.[dR]}$PEPTIDE1,PEPTIDE1,1:R1-4:R2$$$V2.0; SMILES C[C@@H]1NC(=O)CNC(=O)[C@@H](CCCNC(=N)N)NC(=O)[C@H](Cc2ccc(O)cc2)NC1=O) [C-9] | reduced levels | – | – | inhibited significantly | inhibit | inhibit | inhibit
